Test results taken from article PMC8591083, “Catechol 1,2-Dioxygenase From Paracoccus sp. MKU1—A Greener and Cleaner Bio-Machinery for cis, cis-Muconic Acid Production by Recombinant E. coli” (Frontiers in Bioengineering and Biotechnology, 2021).

Experiments:
Oc1ccccc1O = test: purified protein; settings: 50 mM Tris-HCl pH 7.5, 37 °C, 20 min, catechol 0-200 µM, substrate O2 from air
[1] = target: Catechol 1,2-dioxygenase from Paracoccus sp. MKU1 (Paracoccus sp. MKU1); test: SEC; purified C12O on Sephacryl S-300 HR, 50 mM Tris-HCl pH 8.5, 1 ml/min, A280; calibrated with NativeMark standards (20-1,236 kDa)

Substance “Catechol 1,2-dioxygenase (C12O) (Paracoccus sp. MKU1)” has a Km (Oc1ccccc1O) of 12.89 µM and a kcat (Oc1ccccc1O) of 199.5 s⁻¹.

“Catechol 1,2-dioxygenase from Paracoccus sp. MKU1 (enzyme)” gave a stoichiometry N [1] of 3.
